Test results as given in publication PMC4856590 (Structure (London, England : 1993), 2016).
Where no end group is shown, it is not given here. The star is where a group is joined. FITC = O=C1OC2(c3ccc(O)cc3Oc3cc(O)ccc32)c2ccc(NC(=S)*)cc21

How the values were obtained:
[1] = target: T1, human COP1 β-propeller (376-731) (human, UniProt Q8NHY2 376-731); experiment: fluorescence polarisation
[2] = target: T1, human COP1 β-propeller (376-731); experiment: fluorescence polarisation; remark: listed apart in the source

T1 sequence (Q8NHY2 376-731): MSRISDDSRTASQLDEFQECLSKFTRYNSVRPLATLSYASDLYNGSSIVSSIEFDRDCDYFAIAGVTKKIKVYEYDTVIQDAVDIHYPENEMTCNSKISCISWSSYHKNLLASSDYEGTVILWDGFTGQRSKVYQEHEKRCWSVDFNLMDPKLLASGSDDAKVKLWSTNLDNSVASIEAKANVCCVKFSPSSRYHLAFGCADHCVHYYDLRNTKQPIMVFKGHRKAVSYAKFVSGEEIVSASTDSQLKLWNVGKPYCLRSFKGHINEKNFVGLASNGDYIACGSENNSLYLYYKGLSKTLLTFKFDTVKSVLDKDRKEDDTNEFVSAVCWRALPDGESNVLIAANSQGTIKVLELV

Binder	binding result [1]	Kd [2] [nM]
Trib1 molecule containing residues 83-372 (domain or fragment, human, UniProt Q96RU8 83-372, looked up) GSAPGPSRIADYLLLPLAEREHVSRALCIHTGRELRCKVFPIKHYQDKIRPYIQLPSHSNITGIVEVILGETKAYVFFEKDFGDMHSYVRSRKRLREEEAARLFKQIVSAVAHCHQSAIVLGDLKLRKFVFSTEERTQLRLESLEDTHIMKGEDDALSDKHGCPAYVSPEILNTTGTYSGKAADVWSLGVMLYTLLVGRYPFHDSDPSALFSKIRRGQFCIPEHISPKARCLIRSLLRREPSERLTAPEILLHPWFESVLEPGYIDSEIGTSDQIVPEYQEDSDISSFFC	binds	–
{FITC}-SEIGTSDQIVPEYQEDSDI [FITC-SEIGTSDQIVPEYQEDSDI]	–	250 ± 40
